# In patent publication US20170253650A1 (FRAUNHOFER GESELLSCHAFT ZUR FOERDERUNG DER ANGEWANDTEN …, published 2017):
# B1: Gb-2.44 (enterokinase-activated EGb-2.44scFv fusion protein: granzyme B R201K fused to MSP4-specific scFv 2.44) (other)
# chain: SRHIDDDDKIIGGHEAKPHSRPYMAFLMIWDQKSLKRCGGFLIRDDFVLTAAHCWGSSINVTLGAHNIKEQEPTQQFIPVKRAIPHPAYNPKNFSNDIMLLQLERKAKRTRAVQPLRLPSNKAQVKPGQTCSVAGWGQTAPLGKHSHTLQEVKMTVQEDRKCESDLRHYYDSTIELCVGDPEIKKTSFKGDSGGPLVCNKVAQGIVSYGKNNGMPPRACTKVSSFVHWIKKTMKRYAEHEGDAAQPAMADVQLQESGPGLVKPSQSLSLTCTVTGYSITSDFAWNWIRQFPGNRLEWMGYMGYTGSTSYNPSLRGRISITRDTSKNQFFLQLNSVTTEDTATYYCARGDYYGSRGYFDVWGAGTTVTVSSGGGGSGGGGSSGGGSGGGGSEIVLTQSPALMAASPGEKVTITCSVSSSIRSSNLHWYQQKSDTSPKPWIYGTSNLASGVPVRFSGSGSGTSYSLTISTMEAEDAATYYCQQWSSYPFTFGSGTKLEIKAAANSSLGSGWSHPQFEKTGHHHHHHHHGGQ
# Assays:
# [1] = biological target: MSP4 on P. falciparum 3D7A parasites (mature schizonts / merozoite surface) (Plasmodium falciparum 3D7A); test: cell-based or functional assay
# [2] = biological target: MSP4 on P. falciparum K1 parasites (multi-drug-resistant strain) (Plasmodium falciparum K1); test: cell-based or functional assay
binder,measurement,setting,value
B1,"half maximal inhibitory concentration (IC50-value), 48-h drug susceptibility assay on P. falciparum 3D7A (PfHRP2 ELISA)",[1],176 nM
same,"IC50-value, 48-h drug susceptibility assay on multi-drug resistant strain P. falciparum K1 (PfHRP2 ELISA)",[2],247 nM
